Reference: US20080249008A1 (published 2008)

B1: EGF mutant clone 121 (competitor on NR6 cells) (ligand)
chain: NSDPKCPLSHEGYCLNDGVCMYIGTLDRYACNCVVGYVGERCQYRDLKWLALR
B2: EGF mutant clone 30 (soluble) (ligand)
chain: SSNSGCPLSHDGYCLHDGVCMYIEALDRYACNCVVGYAGERCQYRDLKWWELR
notes: Produced solubly

Assays:
[1] = biological target: T1, EGFR on NR6 fibroblast cells (UniProt P00533 25-1210, limits assumed); assay: competition for binding to fibroblast cells, flow cytometry
T1 construct: whole, on cells; also called fibroblast cells expressing EGFR; NR6 fibroblasts
Experimental: (§1) Fluorescence intensity of cell surface labeling was measured by flow cytometry.

[2] = biological target: T1, EGFR on NR6 fibroblast cells; assay: competition with Alexa-488 labeled wt EGF on NR6 fibroblast cells, flow cytometry, 2 hr at 4 C
Experimental: as §1

Binder	IC50 [1] [nM]	Kd [2] [nM]
B1	0.14	
B2		0.56
